For this data set, the system named is CC(=O)Oc1ccc([N+](=O)[O-])cc1. The experiment in a line: purified protein. The settings on record: PBS, 37 °C, 0.25 mg/mL enzyme.

The term Km denotes the concentration of substrate that gives half-maximal velocity. One may read the Vmax as the rate approached at saturating substrate. Regarding “Lsa45 (Leptospiral surface adhesin of 45 kDa) (Leptospira interrogans serovar Copenhageni str. Fiocruz L1-130)”, the Km stood at 849.3 ± 15.30 µM and the Vmax was found to be 219 µM/min.

Values taken from article PMC9836055.
